Experimental data as given in patent US5945585.

Columns and labels:
[1] = molecular target: [14C]oleoyl-ACP made from E. coli acyl carrier protein (E. coli) (UniProt P0A6A8); conditions: scale: times the E. coli background thioesterase activity
lauryl-ACP (12:0-ACP) = conditions: scale: pmoles per min per microliter of cell lysate
caproyl-ACP (10:0-ACP) = conditions: scale: pmoles per min per microliter of cell lysate
[2] = molecular target: [14C]oleoyl-ACP made from E. coli acyl carrier protein (E. coli) (UniProt P0A6A8); conditions: scale: pmoles per min per microliter of cell lysate
[3] = molecular target: [14C]stearoyl-ACP made from E. coli acyl carrier protein (E. coli) (UniProt P0A6A8)
[4] = molecular target: [14C]oleoyl-ACP made from E. coli acyl carrier protein (E. coli) (UniProt P0A6A8)

β-galactosidase fusion protein of the Brassica napus oleoyl-ACP thioesterase (p5C insert in pBluescript SK, correct orientation) (enzyme)
Oleoyl-ACP thioesterase activity [1]: 26

β-galactosidase fusion protein of the Cuphea viscossisima oleoyl-ACP thioesterase precursor (p1A insert in pBluescript) (enzyme)
activity per microliter of cell lysate (lauryl-ACP (12:0-ACP)): 0.1
activity per microliter of cell lysate (caproyl-ACP (10:0-ACP)): 0.05
activity per microliter of cell lysate [2]: 15.5

B1: soybean seed acyl-ACP thioesterase, purified from developing soybean seeds (Glycine max cultivar Wye) (enzyme)
chain: RVEADPGTLADRLRVGSLTEDGLSYKEKFIVRSYEVGINKTATVETIANLLQEVGCNHAQSVGYSTDGFATTPTMRKLRLIWVTARMHIEIYKYPAWSDIVEIETWCQGEGRVGTRRDFILKDYATDEVIGRATSKWVMMNQDTRRLQKVSDDVKEEYLVFCPREPRLAIPEADSNSLKKIPKLEDPAQYSRLGLVPRRADLDMNQHVNNVTYIGWVLESMPQEIIDSHELQSITLDYRRECGQHDIVDSLTSVEAIQGGAEAVPELKGTNGSATAREDKHEHQQFLHLLRLSTEGLEINRGRTEWRKKAPR
Net pmol/µL/min (standard acyl-ACP thioesterase assay) [3]: 4.07 pmol/µL/min

B2: soybean seed acyl-ACP thioesterase expressed from the phaseolin:soybean thioesterase transgene (pZPHTE1) in Brassica napus line 241 (enzyme)
chain: RVEADPGTLADRLRVGSLTEDGLSYKEKFIVRSYEVGINKTATVETIANLLQEVGCNHAQSVGYSTDGFATTPTMRKLRLIWVTARMHIEIYKYPAWSDIVEIETWCQGEGRVGTRRDFILKDYATDEVIGRATSKWVMMNQDTRRLQKVSDDVKEEYLVFCPREPRLAIPEADSNSLKKIPKLEDPAQYSRLGLVPRRADLDMNQHVNNVTYIGWVLESMPQEIIDSHELQSITLDYRRECGQHDIVDSLTSVEAIQGGAEAVPELKGTNGSATAREDKHEHQQFLHLLRLSTEGLEINRGRTEWRKKAPR
Thioesterase Activity (nmole min^-1 embryo^-1), nmoles of 18:1-ACP hydrolyzed per embryo per minute (nmole min^-1 embryo^-1) [4]: 4.53
